Assay results published in the DeepSol protein solubility set.

Test: soluble on expression in E. coli; label from the status in PepcDB or PDB records

Sequence	soluble on expression in E. coli
MSLKIIIAGAGNVGTHLAKLLSREKQDIILMDDDEEKLSALSANFDLLTVTASPSSISGLKEVGVKEADLFIAVTPDESRNMTACMLATNLGAKKTVARIDNYEYLLPKNKEFFRKLGVDSLIYPEMLAAKEIVSSMRMSWVRQWWEFCGGALILIGTKMREKAEILNIPLHQLGAPDIPYHVVAIKRGTETIIPRGDDVIKLHDIVYFTTTRKYIPYIRKIAGKEDYADVRNVMIMGGSRIAVRTAQYVPDYMQVKIVDNDINRCNRLTELLDDKTMIINGDGRDMDLLIEEGLKNTEAFVALTDNSETNILACLAAKRMGVEKTVAEVENIDYIGMAESLDIGTVINKKMIAASHIYQMMLDADVSNVKCLTFANADVAEFTVPAGAKITKNLIKDLGLPKGTTIGGMIRNGEGVLVTGDTLIRPGDHVVVFCLSMMIKKIEKFFNEGHHHHHH	soluble
MGHHHHHHSHMDELVHDLASALEQTSEQNKLGELWEEMALSPRQQRRQLRKRRGRKRRSDFTHLAEHTCCYSEASESSLDEATKDCREVAPVTNFSDSDDTMVAKRHPALNAIVKSKQHSWHESDSFTENAPCRPLRRRRKVKRVTSEVAASLQQKLKVSDWSYERGCRFKSAKKQRLSRWKENTPWTSSGHGLCESAENRTFLSKTGRKERMECETDEQKQGSDENMSEW	not soluble
MGSDKIHHHHHHMPTLDPLSLRLFVSVAEAGTIAAAAEREHIAAAAVSKRISEIEATLGVALLRRTNKGVAPTAAGERLVVLAHRALHELDDIAVQMRDYASGVSGLIRLAANVSSVVQFLPREIQAFAAQHPRIQIQLEEKASAGVVKAVADNAVDIGIFTSVPHGYEVQTFPYHRDFLTLVVPGGHTLAQKQAVAFADTLDFEYVGLPPDTAISQQLTRAAHAHARPVNLRIQVTSYDAQCLMIAAGLGLGVMPHAVAQQQAANLGLATVALTDAWAERELLIAVRSLEALPVACRMLVAHLRGA	not soluble
MNKERQDLSGLEAVWLFGYGSLIYKVDFPYLERAAASIQGWSRRFWQGSHDHRGTPEAPGRVLTLTETPGEECTGMAYKVSPDVFEHLDHREKNGYLRFTTPMSFRDGSQQEGLVYIATEDNEAFLGEATASEIASHIARSSGPSGPNAEYLVKLQLALQQLGVNDPHITQVYEALMADRASLEHHHHHH	soluble
MSLNFHDVRFPPSLSFGSLGGPQRRTDVVTLANGYEERNTPWAHSRRVYDAGLGMRSIDDVQALTGFFEARMGQMYGFRWKDWADFKSCASSVGVTFEDQSLGFGDGVRTDYQLVKTYSSGGHSYVRPITKPVAGTVRVGIEQDALQEGSDYEVDLSTGIIRFAHAPDPEMQVSAGFEFDVPVRFDTDRILVSVASFQAGQVPDVPVIEVRVEGHHHHHH	soluble
SGTVHARSLEPLPSSGPDFGGLGEEAEFVEVEPEAKQEILENKDVVVQHVHFDGLGRTKDDIIICEIGDVFKAKNLIEVMRKSHEAREKLLRLGIFRQVDVLIDTCQGDDALPNGLDVTFEVTELRRLTGSYNTMVGNNEGSMVLGLKLPNLLGRAEKVTFQFSYGTKETSYGLSFFKPRPGNFERNFSVNLYKVTGQFPWSSLRETDRGMSAEYSFPIWKTSHTVKWEGVWRELGCLSRTASFAVRKESGHSLKSSLSHAMVIDSRNSSILPRRGALLKVNQELAGYTGGDVSFIKEDFELQLNKQLIFDSVFSASFWGGMLVPIGDKPSSIADRFYLGGPTSVRGFSMHSIGPQSEGDYLGGEAYWAGGLHLYTPLPFRPGQGGFGELFRTHFFLNAGNLCNLNYGEGPKAHIRKLAECIRWSYGAGIVLRLGNIARLELNYCVPMGVQTGDRICDGVQFGAGIRFL	soluble
MSLAPLAPLRAHAGRRLTAGLDDATIERLATDHPTLRQAIEAAGSEYALVQAEVADLLDLDEDAQISAVQDGFINFYADDAVTPYVALAARGPWVITLKGAVLYDAGGYGMLGFGHTPEAVLDAMARPQVMANVMTPSLAQRKLDRALRAEIGHTRGGCPFARFMCLNSGSEAVGLAARIVDTNAKLHTDPGARHAGATIKRLVVKGSFHGRTDRPGLYSDSSRKTYSKYLASYRDEDSVIAIAPYDIAALQRAFDEAARNHWFIEAVFLEPVMGEGDPGRALPAEFYAAARTLTRNHGSLLLVDSIQAGLRAHGVLSVVDYPGFEQLDPPDLETYSKALNAAQYPLSVLAVTEQAAQVYRKGTYGNTMTTNPRALDVACATLALFTPQIRDNIRLRGAQALRKLEALQAELGGLITKVQGTGLLFSCELAPQYKCYGAGSTEEWLRHHGVNVIHGGENSLRFTPHFGMDEAELDLLVGLIAKALKEGPRQAQAEAEGHHHHHH	soluble
MGSDKIHHHHHHMENQPNTRSMIFTLYGDYIRHYGNVIWIGSLIRFLQEFGHNEQSVRAAVSRMSKQGWIQSEKKGNKSYYSLTDQGRKRMAEAAQRIYKLEAPSWDEKWRLLIYSIPEEKRSLRDELRKELVWSGFGLLANSCWITPNPLEEQVETLIEKYEISPYVHFFCADYRGMGEPKTLIEKCWDLDEINEKYLAFIQKYSQKYVIDKNKIEKGEMSDGACFVERTLLVHEYRKFLFIDPGLPQELLPEKWLGDSAAHLFADYYRTLAEPARRFFESVFAEGNSLVKKDKEYNFLDHPFMSESQS	not soluble
GASLAPLRRMREVAARVSANSLTTRLDASRMPEELRGLAGELNAMLARLEEAFQRLSAFSADIAHELRTPLTSLLTQTQVVLSRPRSLEDYREALHGNLEELERLTAMVNDMLLLAKADHGLLAPSRQALDLGAEVDSLLEFYQPLAEDRDIRLLREGSLSLPGDRGMLRRVLANLLDNALRFTADGGEIRIRLGDRRLSVENQGPAIPPERLPRLFDRFYRADPARREGQGEHAGLGLAICRSIVQAHGGEIRCESADGWTRFVIDFAR	not soluble
MSLGRQEMDEHVAIETPYAIALNDRVIGSSMVLPVDLEEFGAGFLFGQGYIKKAEEIREILVCPQGRISVYADVENEEPREVIITSGCGGTGKIPKEMLEGEFAPLADYCLPFAEIKSFIREALHSSPLGPQTHCVHGCGLWNNGRLQVYHEDVGRHNAVDKVLGSILLGRASNNSAVYTTGRLTSDMVLKCARIGIPIIMSRTSPSSLGLALAKRSGATLVAYSRPERINVFNAPERILTEGHHHHHH	not soluble
GSYNKPSETVIPESVDGLQENLDVVVSLAERHYYNCDFKMCYKLTSVVMEKDPFHASCLPVHIGTLVELNKANELFYLSHKLVDLYPSNPVSWFAVGCYYLMVGHKNEHARRYLSKATTLEKTYGPAWIAYGHSFAVESEHDQAMAAYFTAAQLMKGCHLPMLYIGLEYGLTNNSKLAERFFSQALSIAPEDPFVMHEVGVVAFQNGEWKTAEKWFLDALEKIKAIGNEVTVDKWEPLLNNLGHVCRKLKKYAEALDYHRQALVLIPQNASTYSAIGYIHSLMGNFENAVDYFHTALGLRRDDTFSVTMLGHCIEMYIGDSEAYIGADIK	soluble
MGSDKIHHHHHHMSVLTVTGLSQRFLDKVLYQDASFQVNIEDHLGVIGQNGVGKSTLIKILTGAQTPDAGKIVWQKHLHVGYLDQYANLVPGQTVIEFLRTAFSDLYRKEAKMNQIYADYANHPDDDLLAKAGELQQELEAGDFYDLETTIQTVAEGLGITAMGMDHPVEALSGGQRSKLILAKLLLEKPDMLLLDEPTNYLDVSHIAWLTDWLQNFEGAFIVISHDFDFLENVTNAVLDIEFGQITKYTGTLKQAMRQKEADHETYLKAFAKQQETIKKTEAFIRKFKAGTRATMAKSREKQLARMDKLTPPGTRSKAHLAFPYAPVNRQILVDVNDLVVGYDKPLLQPMNFSVAKDQIIAFEGFNGVGKSTLLKTLLGLLPAISGNVEIADNVVFGYYEQELHWDQPKQSPVQYLEQRFPALTQKTVRQVLSRTALTSEEANNPLTMLSGGEQAKVKLADLMLQTTNILVMDEPTNHLDDDTKNALREGLQQYPGAVLLVSHEAGFYDSSWVDTVVNVEQLQVKA	not soluble
MSLKIGKIVSVNFNQFRVKISSEIRGNSVNLAGTVYYFGNIGSYLKTTNSVGEQLICEVMSIFDSDTKLDSAAYDFDSNRELLLKPIGTITRDDRFNLGVGIFPGIYSEVNVVTFEDMELILQTGKDKELSKAIHQSFFLGESKNLINYPIDISINSFFNIHSAVLGNSGSGKSNTIAHIIQEIHKKKNNSAIGSRILIFDVNGEYKNAFTGHEISPYIKVRLLKPNIEATEDGVEPFYLPHFLMNIDEWSSFLMATDATQRPFWDKVLQESYKFYMIATHEGDDRQKLINYLRFKICNLIHILQAQGDSDTAIITTAQGILYGILTLIEMDDDLQRACQQEGVLQDLHDLNASCTIDWGRNDGKLMRAVELVENRINKDTLREVMDYRASGEEYFNYEFLKQAANLTLLEEDARGNGRVREYTSTMMTRLDFFLDNPDCAFMRKSPVGATNIDQYLDWLWQSDKTVPEKTNMVIIDTSELSKDALETLTSVTSRLHFTSRKKLKGSARREKPIHLVLDEAHRYIKKDSKYLLRENIFEQIAREGRKYALYLLVSSQRPSELSETVLSQCSNFIIHRIQNEIDMKYVYAILPYFSDDFANKIKQSVPGEALIFGNCVSMPLHVRVKQAYPEPNSENCKVHEEWFKEGHHHHHH	soluble
MLKKLKNFILFSSIFSPIAFAISCSNTGVVKQEDVSVSQGQWDKSITFGVSEAWLNKKKGGEKVNKEVINTFLENFKKEFNKLKNANDKTKNFDDVDFKVTPIQDFTVLLNNLSTDNPELDFGINASGKLVEFLKNNPGIITPALETTTNSFVFDKEKDKFYVDGTDSDPLVKIAKEINKIFVETPYASWTDENHKWNGNVYQSVYDPTVQANFYRGMIWIKGNDETLAKIKKAWNDKDWNTFRNFGILHGKDNSSSKFKLEETILKNHFQNKFTTLNEDRSAHPNAYKQKSADTLGTLDDFHIAFSEEGSFAWTHNKSATKPFETKANEKMEALIVTNPIPYDVGVFRKSVNQLEQNLIVQTFINLAKNKQDTYGPLLGYNGYKKIDNFQKEIVEVYEKAIK	soluble
MADEALFLLLHNEMVSGVYKSAEQGEVENGRCITKLENMGFRVGQGLIERFTKDTARFKDELDIMKFICKDFWTTVFKKQIDNLRTNHQYLAFTCGLIRGGLSNLGIKSIVTAEVSSMPACKFQVMIQKL	not soluble
MNSENSFSSSEHITVLLHEAVNGLALKENGIYIDGTFGRGGHSRFILSQLSSNGRLIAVDRDPRAIAEAHKIQDLRFQIEHNSFSHIPEICDKLNLVGKIDGILLDLGVSSPQLDEAERGFSFMKDGPLDMRMDTTQGLSAEEWLKQVSIEDLTWVLKTFGEERFAKRIATAIVDFNKSAVKNGTEFLSRTSQLAELISQAVPFKDKHKHPATRSFQAIRIFINSELDELESLLNSALDMLAPEGRLSIISFHSLEDRMVKHFMKKQSKGEDIPKGLPLREDQIQRNQKLRIIGKAIQPSDAEIQANPRSRSAILRVAERILEHHHHHH	soluble
MVVVMNPEQIYGVSNIKSHIPVMLDIEESNYDAWRELFLTHCLSFDVMGHIDGTLLPTNANDVNWQKRDGIVKLSLYGTLTPKQFQGSFVTSSTSRDIWLRIKNQFRNNKDARALRLDSELRTKDIGDMRVADYYRKMKKLADSLRNVDVPVTDRNLVMYVLNGLNPKFDNIINVIKHRQPFPSFDDAATMLQEEEDRLKRAIKPNPTHVDHSSSSTVLACSEAPPVTNFQRSGGNQMGYRGRGRGNNIFRGRGGRFSYYNMPTFNSWNRPPFYQNSYQMWNHPWGYPPYVNTNGGNGLGLLGPRPAY	soluble
MSAPKPFVIGIAGGTASGKTTLAQALARTLGERVALLPMDHYYKDLGHLPLEERLRVNYDHPDAFDLALYLEHAQALLRGLPVEMPVYDFRAYTRSPRRTPVRPAPVVILEGILVLYPKELRDLMDLKVFVDADADERFIRRLKRDVLERGRSLEGVVAQYLEQVKPMHLHFVEPTKRYADVIVPRGGQNPVALEMLAAKALARLARMGAA	soluble
